Consider four molecules from patent EP4803150A2 (Lyvgen Biopharma Holdings Limited, dated 2026).

Experiment [1] concerns the target T1, CD137 (human, UniProt Q07011 24-186).
T1 construct: Whole on GS-H2-huCD137 reporter cells in the reporter assays; also called 4-1BB
In words: FCM or ELISA, graded.

Experiment [2] addresses T1, CD137. Put plainly: FCM or ELISA, graded. The source holds these as a separate data set. A general note: An ELISA detects its analyte on a solid surface through an enzyme-linked reagent.
A further experiment concerns the target T2, CD19 (human, UniProt P15391 20-556).
T2 construct: whole, on cells
T2 sequence (looked up): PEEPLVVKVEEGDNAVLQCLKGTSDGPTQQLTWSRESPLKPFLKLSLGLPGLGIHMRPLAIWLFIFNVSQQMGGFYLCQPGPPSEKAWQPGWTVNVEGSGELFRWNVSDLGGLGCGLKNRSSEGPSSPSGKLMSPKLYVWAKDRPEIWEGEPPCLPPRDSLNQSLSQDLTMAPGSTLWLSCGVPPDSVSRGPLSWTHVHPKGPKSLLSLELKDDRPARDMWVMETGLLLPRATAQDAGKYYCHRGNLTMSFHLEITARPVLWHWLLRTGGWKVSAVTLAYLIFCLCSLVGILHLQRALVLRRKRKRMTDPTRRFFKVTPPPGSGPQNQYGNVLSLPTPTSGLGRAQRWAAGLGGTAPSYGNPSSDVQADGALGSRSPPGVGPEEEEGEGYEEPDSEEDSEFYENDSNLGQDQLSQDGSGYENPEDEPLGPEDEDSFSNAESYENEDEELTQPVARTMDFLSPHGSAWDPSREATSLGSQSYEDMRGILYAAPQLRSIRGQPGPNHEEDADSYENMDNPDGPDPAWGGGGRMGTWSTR
Put plainly: CHO cells overexpressing CD19, graded.

Read-outs that look alike come from different tables or passages of the source.

B1: Ly2937 (multi-specific antibody)
chain 1: not shown
chain 2: QVQLVQSGAEVKKPGASVKVSCKASGYTFTSYVMHWVRQKPGQGLEWIGYINPYNEGTESTDKFKGRATMTSDKSTSTVYMELSSLRSEDTAVYYCASIYYGYEGTYFGVWGQGTLVTVSSASTKGPSVFPLAPSSKSTSGGTAALGCLVKDYFPEPVTVSWNSGALTSGVHTFPAVLQSSGLYSLSSVVTVPSSSLGTQTYICNVNHKPSNTKVDKKVEPKSCGGGGSGGGGSGGGGSGGGGSQIVLTQSPAIMSASPGEKVTMTCSASSSVSYMNWYQQKSGTSPKRWIYDTSKLASGVPAHFRGSGSGTSYSLTISGMEAEDAATYYCQQWSSNPFTFGSGTKLEINGGGGSDKTHTCPPCPAPELLGPSVFLFPPKPKDTLMISRTPEVTCVVVDVSHEDPEVKFNWYVDGVEVHNAKTKPREEQYNSTYRVVSVLTVLHQDWLNGKEYKCKVSNKALGAPIEKTISKAKGQPREPQVYTLPPSREEMTKNQVSLSCAVKGFYPSDIAVEWESNGQPENNYKTTPPVLDSDGSFFLVSKLTVDKSRWQQGNVFSCSVMHEALHNRFTQKSLSLSPGKGGGGSGGGGSGGGGSGGGGSDIQMTQSPSSLSASVGDRVTITCRASQDIRSNLNWYQQKPGGAVKLLIYYTSRLHSGVPSRFSGSGSGTDYTLTISSLQPEDFATYFCQQSEKLPRTFGGGTKVEIR
chain 3: EIVLTQSPATLSLSPGERATLSCRASSSVSYMHWYQQKPGQAPRPWIYATSNLASGIPARFSGSRSGTDYTLTISSLEPEDFAVYYCQQWSSNTLTFGGGTKVEIKRTVAAPSVFIFPPSDEQLKSGTASVVCLLNNFYPREAKVQWKVDNALQSGNSQESVTEQDSKDSTYSLSSTLTLSKADYEKHKVYACEVTHQGLSSPVTKSFNRGEC
notes: B7H3/CD3/CD137
Consider B1, for which the binding result with CD137 [1] is recorded as “binds”.

B2: Ly2940 (bispecific antibody, human IgG1, kappa)
chain 1: QVQLVQSGAEVKKPGASVKVSCKASGYTFTSYVMHWVRQKPGQGLEWIGYINPYNEGTESTDKFKGRATMTSDKSTSTVYMELSSLRSEDTAVYYCASIYYGYEGTYFGVWGQGTLVTVSSASTKGPSVFPLAPSSKSTSGGTAALGCLVKDYFPEPVTVSWNSGALTSGVHTFPAVLQSSGLYSLSSVVTVPSSSLGTQTYICNVNHKPSNTKVDKKVEPKSCDKTHTCPPCPAPELLGPSVFLFPPKPKDTLMISRTPEVTCVVVDVSHEDPEVKFNWYVDGVEVHNAKTKPREEQYNSTYRVVSVLTVLHQDWLNGKEYKCKVSNKALGAPIEKTISKAKGQPREPQVYTLPPSREEMTKNQVSLWCLVKGFYPSDIAVEWESNGQPENNYKTTPPVLDSDGSFFLYSKLTVDKSRWQQGNVFSCSVMHEALHNHYTQKSLSLSPGKGGGGSGGGGSGGGGSGGGGSQVQLVQSGAEVKKPGASVKVSCKASGYTFAGFEMHWVRQAPGQGLEWMGAIDPKTGGTDYNQKFKDRVTMTRDTSISTAYMELSRLRSDDTAVYYCARDLGYFDVWGQGTLVTVSS
chain 2: QVQLVQSGAEVKKPGASVKVSCKASGYTFTSYVMHWVRQKPGQGLEWIGYINPYNEGTESTDKFKGRATMTSDKSTSTVYMELSSLRSEDTAVYYCASIYYGYEGTYFGVWGQGTLVTVSSASTKGPSVFPLAPSSKSTSGGTAALGCLVKDYFPEPVTVSWNSGALTSGVHTFPAVLQSSGLYSLSSVVTVPSSSLGTQTYICNVNHKPSNTKVDKKVEPKSCDKTHTCPPCPAPELLGPSVFLFPPKPKDTLMISRTPEVTCVVVDVSHEDPEVKFNWYVDGVEVHNAKTKPREEQYNSTYRVVSVLTVLHQDWLNGKEYKCKVSNKALGAPIEKTISKAKGQPREPQVYTLPPSREEMTKNQVSLSCAVKGFYPSDIAVEWESNGQPENNYKTTPPVLDSDGSFFLVSKLTVDKSRWQQGNVFSCSVMHEALHNRFTQKSLSLSPGKGGGGSGGGGSGGGGSGGGGSDIQMTQSPSSLSASVGDRVTITCRASQDIRSNLNWYQQKPGGAVKLLIYYTSRLHSGVPSRFSGSGSGTDYTLTISSLQPEDFATYFCQQSEKLPRTFGGGTKVEIR
chain 3: EIVLTQSPATLSLSPGERATLSCRASSSVSYMHWYQQKPGQAPRPWIYATSNLASGIPARFSGSRSGTDYTLTISSLEPEDFAVYYCQQWSSNTLTFGGGTKVEIKRTVAAPSVFIFPPSDEQLKSGTASVVCLLNNFYPREAKVQWKVDNALQSGNSQESVTEQDSKDSTYSLSSTLTLSKADYEKHKVYACEVTHQGLSSPVTKSFNRGEC
notes: B7H3/CD137; anti-CD137 Fv on C-terminal
Turning to B2, the binding result with CD137 [1] is reported as “binds”.

B3: Ly2823 (multi-specific antibody)
chain 1: EVQLVESGGGLVKPGGSLKLSCEASRFTFSSYAMSWVRQTPEKRLEWVAAISGGGRYTYYPDSMKGRFTISRDNAKNFLYLQMSSLRSEDTAMYYCARHYDGYLDYWGQGTTLTVSSASTKGPSVFPLAPSSKSTSGGTAALGCLVKDYFPEPVTVSWNSGALTSGVHTFPAVLQSSGLYSLSSVVTVPSSSLGTQTYICNVNHKPSNTKVDKKVEPKSCGGGGSGGGGSGGGGSGGGGSEVQLVESGGGLVQPGGSLRLSCAASGFTFSTYAMNWVRQAPGKGLEWVGRIRSKYNNYATYYADSVKGRFTISRDDSKNSLYLQMNSLKTEDTAVYYCVRHGNFGNSYVSWFAYWGQGTLVTVSSGGGGSDKTHTCPPCPAPELLGPSVFLFPPKPKDTLMISRTPEVTCVVVDVSHEDPEVKFNWYVDGVEVHNAKTKPREEQYNSTYRVVSVLTVLHQDWLNGKEYKCKVSNKALGAPIEKTISKAKGQPREPQVYTLPPSREEMTKNQVSLWCLVKGFYPSDIAVEWESNGQPENNYKTTPPVLDSDGSFFLYSKLTVDKSRWQQGNVFSCSVMHEALHNHYTQKSLSLSPGKGGGGSGGGGSGGGGSGGGGSQVQLVQSGAEVKKPGASVKVSCKASGYTFAGFEMHWVRQAPGQGLEWMGAIDPKTGGTDYNQKFKDRVTMTRDTSISTAYMELSRLRSDDTAVYYCARDLGYFDVWGQGTLVTVSS
chain 2: EVQLVESGGGLVKPGGSLKLSCEASRFTFSSYAMSWVRQTPEKRLEWVAAISGGGRYTYYPDSMKGRFTISRDNAKNFLYLQMSSLRSEDTAMYYCARHYDGYLDYWGQGTTLTVSSASTKGPSVFPLAPSSKSTSGGTAALGCLVKDYFPEPVTVSWNSGALTSGVHTFPAVLQSSGLYSLSSVVTVPSSSLGTQTYICNVNHKPSNTKVDKKVEPKSCGGGGSGGGGSGGGGSGGGGSQAVVTQEPSLTVSPGGTVTLTCRSSTGAVTTSNYANWVQQKPGQAPRGLIGGTNKRAPWTPARFSGSLLGGKAALTITGAQAEDEADYYCALWYSNLWVFGGGTKLTVLGGGGSDKTHTCPPCPAPELLGPSVFLFPPKPKDTLMISRTPEVTCVVVDVSHEDPEVKFNWYVDGVEVHNAKTKPREEQYNSTYRVVSVLTVLHQDWLNGKEYKCKVSNKALGAPIEKTISKAKGQPREPQVYTLPPSREEMTKNQVSLSCAVKGFYPSDIAVEWESNGQPENNYKTTPPVLDSDGSFFLVSKLTVDKSRWQQGNVFSCSVMHEALHNHYTQKSLSLSPGKGGGGSGGGGSGGGGSGGGGSDIQMTQSPSSLSASVGDRVTITCRASQDIRSNLNWYQQKPGGAVKLLIYYTSRLHSGVPSRFSGSGSGTDYTLTISSLQPEDFATYFCQQSEKLPRTFGGGTKVEIR
chain 3: DIVMTQSHKFMSTSIGARVSITCKASQDVRTAVAWYQQKPGQSPKLLIYSASYRYTGVPDRFTGSGSGTDFTFTISSVQAEDLAVYYCQQHYGTPPWTFGGGTKLEIKRTVAAPSVFIFPPSDEQLKSGTASVVCLLNNFYPREAKVQWKVDNALQSGNSQESVTEQDSKDSTYSLSSTLTLSKADYEKHKVYACEVTHQGLSSPVTKSFNRGEC
notes: B7H3/CD3/CD137
In the case of B3, in the experiment with CD137 [1], the binding result was “binds”.

B4: Ly2800 (multi-specific antibody)
chain 1: QVQLQQPGAELVKPGASVKMSCKASGYTFTSYNMHWVKQTPGRGLEWIGAIYPGNGDTSYNQKFKGKATLTADKSSSTAYMQLSSLTSEDSAVYYCARSTYYGGDWYFNVWGAGTTVTVSAASVAAPSVFIFPPSDEQLKSGTASVVCLLNNFYPREAKVQWKVDNALQSGNSQESVTEQDSKDSTYSLSSTLTLSKADYEKHKVYACEVTHQGLSSPVTKSFNRGECGGGGSGGGGSGGGGSGGGGSEVQLVESGGGLVQPGGSLRLSCAASGFTFSTYAMNWVRQAPGKGLEWVGRIRSKYNNYATYYADSVKGRFTISRDDSKNSLYLQMNSLKTEDTAVYYCVRHGNFGNSYVSWFAYWGQGTLVTVSSGGGGSDKTHTCPPCPAPELLGPSVFLFPPKPKDTLMISRTPEVTCVVVDVSHEDPEVKFNWYVDGVEVHNAKTKPREEQYNSTYRVVSVLTVLHQDWLNGKEYKCKVSNKALGAPIEKTISKAKGQPREPQVYTLPPSREEMTKNQVSLWCLVKGFYPSDIAVEWESNGQPENNYKTTPPVLDSDGSFFLYSKLTVDKSRWQQGNVFSCSVMHEALHNHYTQKSLSLSPGKGGGGSGGGGSGGGGSGGGGSQVQLVQSGAEVKKPGASVKVSCKASGYTFAGFEMHWVRQAPGQGLEWMGAIDPKTGGTDYNQKFKDRVTMTRDTSISTAYMELSRLRSDDTAVYYCARDLGYFDVWGQGTLVTVSS
chain 2: QVQLQQSGAELVRPGSSVKISCKASGYAFSSYWMNWVKQRPGQGLEWIGQIWPGDGDTNYNGKFKGKATLTADESSSTAYMQLSSLASEDSAVYFCARRETTTVGRYYYAMDYWGQGTTVTVSSASTKGPSVFPLAPSSKSTSGGTAALGCLVKDYFPEPVTVSWNSGALTSGVHTFPAVLQSSGLYSLSSVVTVPSSSLGTQTYICNVNHKPSNTKVDKKVEPKSCGGGGSGGGGSGGGGSGGGGSQAVVTQEPSLTVSPGGTVTLTCRSSTGAVTTSNYANWVQQKPGQAPRGLIGGTNKRAPWTPARFSGSLLGGKAALTITGAQAEDEADYYCALWYSNLWVFGGGTKLTVLGGGGSDKTHTCPPCPAPELLGPSVFLFPPKPKDTLMISRTPEVTCVVVDVSHEDPEVKFNWYVDGVEVHNAKTKPREEQYNSTYRVVSVLTVLHQDWLNGKEYKCKVSNKALGAPIEKTISKAKGQPREPQVYTLPPSREEMTKNQVSLSCAVKGFYPSDIAVEWESNGQPENNYKTTPPVLDSDGSFFLVSKLTVDKSRWQQGNVFSCSVMHEALHNHYTQKSLSLSPGKGGGGSGGGGSGGGGSGGGGSDIQMTQSPSSLSASVGDRVTITCRASQDIRSNLNWYQQKPGGAVKLLIYYTSRLHSGVPSRFSGSGSGTDYTLTISSLQPEDFATYFCQQSEKLPRTFGGGTKVEIR
chain 3: QIVLSQSPAILSASPGEKVTMTCRASSSVSYIHWFQQKPGSSPKPWIYATSNLASGVPVRFSGSGSGTSYSLTISRVEAEDAATYYCQQWTSNPPTFGGGTKLEIKSSASTKGPSVFPLAPSSKSTSGGTAALGCLVKDYFPEPVTVSWNSGALTSGVHTFPAVLQSSGLYSLSSVVTVPSSSLGTQTYICNVNHKPSNTKVDKKVEPKSC
chain 4: not shown
notes: CD19/CD20/CD3/CD137
Consider B4, for which the binding result with CD137 [2] and with CD19 was “binds” each time.
